Test results as given in publication PMC8032985, “The Interaction Mechanism of Intrinsically Disordered PP2A Inhibitor Proteins ARPP-16 and ARPP-19 With PP2A” (Frontiers in Molecular Biosciences, 2021).
Numbering of substitutions follows the chain as printed. In names and notes the source's numbering stands.

B1: PP2A regulatory subunit B56δ (natural protein)
chain: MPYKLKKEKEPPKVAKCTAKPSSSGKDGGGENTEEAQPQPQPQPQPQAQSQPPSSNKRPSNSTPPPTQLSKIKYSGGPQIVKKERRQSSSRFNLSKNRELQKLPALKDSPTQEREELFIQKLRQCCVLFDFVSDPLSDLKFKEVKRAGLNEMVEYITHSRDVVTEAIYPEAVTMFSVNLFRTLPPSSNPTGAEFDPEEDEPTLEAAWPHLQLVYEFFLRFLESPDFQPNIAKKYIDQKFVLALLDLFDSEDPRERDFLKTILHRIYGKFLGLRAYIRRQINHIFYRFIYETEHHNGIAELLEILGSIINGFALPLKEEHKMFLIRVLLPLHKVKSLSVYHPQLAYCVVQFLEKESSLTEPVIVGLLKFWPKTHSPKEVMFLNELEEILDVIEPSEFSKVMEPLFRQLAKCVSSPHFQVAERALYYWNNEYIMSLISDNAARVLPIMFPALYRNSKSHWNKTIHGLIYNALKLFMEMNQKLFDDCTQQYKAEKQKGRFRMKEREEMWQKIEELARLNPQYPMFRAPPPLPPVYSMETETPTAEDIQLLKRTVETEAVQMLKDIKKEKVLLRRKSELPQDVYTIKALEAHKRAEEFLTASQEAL
modifications: NT-647-NHS fluorescent dye (Monolith NT Protein labeling kit red NHS)
B2: PP2A regulatory subunit B56ε (natural protein)
chain: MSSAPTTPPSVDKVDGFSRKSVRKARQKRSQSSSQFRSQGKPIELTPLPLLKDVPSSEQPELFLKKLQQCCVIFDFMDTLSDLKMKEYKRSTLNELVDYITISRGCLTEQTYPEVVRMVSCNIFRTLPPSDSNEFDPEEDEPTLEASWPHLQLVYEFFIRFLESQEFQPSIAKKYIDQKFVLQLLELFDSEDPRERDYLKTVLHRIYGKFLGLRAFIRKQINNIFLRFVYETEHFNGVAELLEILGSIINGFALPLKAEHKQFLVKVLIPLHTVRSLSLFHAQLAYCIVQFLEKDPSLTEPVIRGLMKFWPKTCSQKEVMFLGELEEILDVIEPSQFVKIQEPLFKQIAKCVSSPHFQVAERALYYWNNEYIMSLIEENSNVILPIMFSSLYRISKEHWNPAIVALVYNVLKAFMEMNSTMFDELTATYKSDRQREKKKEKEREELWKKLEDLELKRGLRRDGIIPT
modifications: NT-647-NHS fluorescent dye (Monolith NT Protein labeling kit red NHS)
B3: cAMP-regulated phosphoprotein 19 (ARPP-19), wild type (natural protein)
chain: MSAEVPEAASAEEQKEMEDKVTSPEKAEEAKLKARYPHLGQKPGGSDFLRKRLQKGQKYFDSGDYNMAKAKMKNKQLPTAAPDKTEVTGDHIPTPQDLPQRKPSLVASKLAG
modifications: 15N-labelled in the NMR titration
B4: ARPP-19 S104E phosphomimicking mutant (natural protein)
chain: B3 chain with S104E
B5: ARPP-19 S62E phosphomimicking mutant (natural protein)
chain: B3 chain with S62E

What was measured:
Assay in all cases: MST; NT-647-NHS-labelled PP2A subunit at 20 nM as target, 12-point twofold dilution series of unlabelled ARPP as ligand; SEC buffer with 0.05% Tween-20; triplicate; single-site binding model
Settings in all cases: both partners purified
[1] = biological target: T1, ARPP-16 S88E phosphomimicking mutant (human)
T1 construct: one residue left at the N-terminus after TEV cleavage; human ARPP-16, UniProt P56211-2, with S88E; numbers count on: ARPP-16 (P56211-2); source: E. coli BL21 Gold, purified (glutathione agarose, TEV cleavage, SEC); not shown: GST, N-terminal, cleaved
T1 sequence (Q14738 whole entry S88E): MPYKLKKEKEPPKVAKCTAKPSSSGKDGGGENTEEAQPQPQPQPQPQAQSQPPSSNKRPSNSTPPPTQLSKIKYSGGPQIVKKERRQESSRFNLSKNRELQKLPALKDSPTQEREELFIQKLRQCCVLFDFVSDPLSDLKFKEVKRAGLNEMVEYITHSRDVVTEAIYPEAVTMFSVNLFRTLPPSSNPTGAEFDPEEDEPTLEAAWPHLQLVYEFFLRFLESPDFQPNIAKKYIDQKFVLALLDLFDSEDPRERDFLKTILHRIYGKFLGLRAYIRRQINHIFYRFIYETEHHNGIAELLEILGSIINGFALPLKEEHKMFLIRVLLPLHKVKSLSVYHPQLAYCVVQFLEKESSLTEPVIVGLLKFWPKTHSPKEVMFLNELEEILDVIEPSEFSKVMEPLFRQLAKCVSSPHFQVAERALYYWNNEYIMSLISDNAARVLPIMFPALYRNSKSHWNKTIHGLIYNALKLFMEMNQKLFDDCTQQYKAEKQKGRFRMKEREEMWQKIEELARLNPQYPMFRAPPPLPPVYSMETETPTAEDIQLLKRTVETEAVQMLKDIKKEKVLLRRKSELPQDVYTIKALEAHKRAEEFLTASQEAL

[2] = biological target: T2, ARPP-16 S46E phosphomimicking mutant (human)
T2 construct: one residue left at the N-terminus after TEV cleavage; human ARPP-16, UniProt P56211-2, with S46E; numbers count on: ARPP-16 (P56211-2); source: E. coli BL21 Gold, purified (glutathione agarose, TEV cleavage, SEC); not shown: GST, N-terminal, cleaved

[3] = biological target: T3, ARPP-16 (splice variant of ARPP-19), wild type (human, 15N-labelled in the NMR titration)
T3 construct: one residue left at the N-terminus after TEV cleavage; human ARPP-16, splice variant of ARPP-19 lacking its first 16 residues, UniProt P56211-2; numbers count on: ARPP-16 (P56211-2); pGTvL1-SGC vector; also called ARPP-16 WT; source: E. coli BL21 Gold, purified (glutathione agarose, TEV cleavage, SEC); not shown: GST, N-terminal, cleaved

[4] = biological target: B2
[5] = biological target: B1
[6] = biological target: T4, PP2A scaffolding subunit PR65α, full length (UniProt P30153 1-589, NT-647-NHS fluorescent dye (Monolith NT Protein labeling kit red NHS) in the MST; unlabelled in the NMR titration)
T4 construct: PP2A scaffolding subunit PR65α, full length; pGTvL1-SGC vector, expressed and purified as the ARPP proteins; also called PP2A A-subunit; A-subunit; source: E. coli BL21 Gold, purified (glutathione agarose, TEV cleavage, SEC); not shown: GST, N-terminal, cleaved
T4 sequence (P30153 whole entry): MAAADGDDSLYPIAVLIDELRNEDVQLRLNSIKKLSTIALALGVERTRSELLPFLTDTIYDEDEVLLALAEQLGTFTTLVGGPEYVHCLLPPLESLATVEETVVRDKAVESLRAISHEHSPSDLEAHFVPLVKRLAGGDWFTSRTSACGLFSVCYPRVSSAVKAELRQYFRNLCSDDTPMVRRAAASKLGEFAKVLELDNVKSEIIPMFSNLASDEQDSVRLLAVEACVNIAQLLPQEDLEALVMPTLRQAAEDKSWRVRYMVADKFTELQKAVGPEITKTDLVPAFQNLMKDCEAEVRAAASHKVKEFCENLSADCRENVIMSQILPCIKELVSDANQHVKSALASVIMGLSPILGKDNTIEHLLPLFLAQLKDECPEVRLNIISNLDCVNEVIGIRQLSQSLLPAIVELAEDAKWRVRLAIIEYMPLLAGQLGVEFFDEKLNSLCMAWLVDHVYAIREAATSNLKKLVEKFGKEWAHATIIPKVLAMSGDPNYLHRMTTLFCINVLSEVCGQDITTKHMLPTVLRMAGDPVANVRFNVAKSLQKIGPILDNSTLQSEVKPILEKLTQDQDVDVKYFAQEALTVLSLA

[7] = biological target: PP2A regulatory subunit B56α (NT-647-NHS fluorescent dye (Monolith NT Protein labeling kit red NHS))
[8] = biological target: T5, PP2A regulatory subunit B56γ (NT-647-NHS fluorescent dye (Monolith NT Protein labeling kit red NHS))
T5 construct: one residue left at the N-terminus after TEV cleavage; PP2A regulatory subunit B56γ, UniProt Q13362-1; source: E. coli BL21 Gold, purified (glutathione agarose, TEV cleavage, SEC); not shown: GST, N-terminal, cleaved
T5 sequence (Q13362 whole entry): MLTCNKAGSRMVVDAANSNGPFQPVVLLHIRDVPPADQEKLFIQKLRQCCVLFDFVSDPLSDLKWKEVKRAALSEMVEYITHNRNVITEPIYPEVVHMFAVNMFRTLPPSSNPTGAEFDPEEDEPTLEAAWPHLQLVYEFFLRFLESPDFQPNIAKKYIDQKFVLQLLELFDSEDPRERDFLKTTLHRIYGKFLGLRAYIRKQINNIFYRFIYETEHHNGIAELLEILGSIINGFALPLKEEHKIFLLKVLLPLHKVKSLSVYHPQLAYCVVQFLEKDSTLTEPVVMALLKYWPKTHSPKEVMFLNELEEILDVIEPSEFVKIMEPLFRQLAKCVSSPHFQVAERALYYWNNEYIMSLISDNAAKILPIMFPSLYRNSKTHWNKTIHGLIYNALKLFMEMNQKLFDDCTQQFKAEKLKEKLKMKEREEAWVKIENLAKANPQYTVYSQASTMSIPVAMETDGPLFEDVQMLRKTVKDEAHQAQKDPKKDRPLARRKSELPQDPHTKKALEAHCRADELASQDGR

Kd [1]	Kd [2]	Kd [3]	Kd [4]	Kd [5]	Kd [6]	Kd [7]	Kd [8]	Binder
40.7 µM	110 µM	> 700 µM						B1
	250 µM	> 500 µM						B2
			> 800 µM	430 µM	7.9 µM	470 µM	> 1300 µM	B3
				195 µM	6.1 µM	85 µM	320 µM	B4
			> 700 µM	95 µM	7.5 µM	110 µM	195 µM	B5
